Columns and labels:
[1] = test system: UM-UC-3 Nectin4 clone F7 xenograft; assay: Tumor xenograft, high nectin-4 expression; format: in vivo, mice (nu/nu); conditions: UMUC3 Nectin-4 clone F7 xenograft, single dose 2 mg/kg, day 40
Protocol: In order to test the efficacy of the nectin-4 ADCs of the present disclosure, which have effector null mutations in the Fc region, and to compare to the enfortumab antibody, which has wildtype Fc and in an ADC with the same payload background as the ones of this disclosure, two tumor xenograft models with either high or moderate nectin-4 expression were tested as described. Immune compromised female mice (nu/nu) between 5-8 weeks of age with weight 18-20 grams were implanted unilaterally on the right flank with UM-UC-3 Nectin4 clone F7 cells with high nectin-4 expression. […] The test articles were given at a single dose (2 mg/kg) formulated with 5% dextrose. Tumors were measured biweekly until Day 40.

MDA-MB-468 xenograft = assay: Tumor xenograft, moderate nectin-4 expression; format: in vivo, NSG mice; conditions: MDAMB468 xenograft, single dose 2 mg/kg, day 71
Protocol: In a separate study, female NSG mice between 5-6 weeks of age were injected subcutaneously with MDA-MB-468 cells with moderate Nectin-4 expression. When tumors reached approximately 150-250 mm^3; animals were matched by tumor volume into treatment or control groups and dosing initiated (Day 0, n=8 per group). The test articles were given at a single dose (2 mg/kg) formulated with 5% Dextrose. Tumors were measured biweekly until Day 71.
In both models, a 2 mg/kg single dose treatment of either the nectin-4 ADCs (exemplified herein with each of Abs1-8 conjugated as in Formula XI, and with a DAR of 8) or benchmark enfortumab ADC (enfortumab conjugated with Formula XI, and with a DAR of 8) was used. Tumor growth was measured at day 40 for UMUC3 Nectin-4 clone F7 and day 71 for MDAMB468 xenografts.

B1: Ab1a ADC: Ab1a conjugated as in Formula XI, and with a DAR of 8 (conjugate)
heavy: QVQLVQSGAQVKKPGASVKVSCKASGYTFTGYYIHWVRQAPGQGLEWMGWINPNSGGTNYAQKFQGRVTMTRDTSISTAYMELSRLRSDDTAVYFCAREDWDFDYWGQGTLVTVSSASTKGPSVFPLAPSSKSTSGGTAALGCLVKDYFPEPVTVSWNSGALTSGVHTFPAVLQSSGLYSLSSVVTVPSSSLGTQTYICNVNHKPSNTKVDKRVEPKSCDKTHTCPPCPAPEAAGGPSVFLFPPKPKDTLMISRTPEVTCVVVSVSHEDPEVKFNWYVDGVEVHNAKTKPREEQYNSTYRVVSVLTVLHQDWLNGKEYKCKVSNKALPAPIEKTISKAKGQPREPQVYTLPPSREEMTKNQVSLTCLVKGFYPSDIAVEWESNGQPENNYKTTPPVLDSDGSFFLYSKLTVDKSRWQQGNVFSCSVMHEALHNHYTQKSLSLSPGK
light: EIVLTQSPGTLSLSPGERATLSCRTSQSVSSSYLAWYQQKPGQAPRLLIYGASNRATDIPDRFSGSGSGTDFTLTINRLEPEDFAVYYCQQYGSSPITFGQGTRLEIKRTVAAPSVFIFPPSDEQLKSGTASVVCLLNNFYPREAKVQWKVDNALQSGNSQESVTEQDSKDSTYSLSSTLTLSKADYEKHKVYACEVTHQGLSSPVTKSFNRGEC
[1]
  Mean tumor volume: 234.79 mm^3
MDA-MB-468 xenograft
  Mean tumor volume: 135.24 mm^3

B2: Ab3 ADC: Ab3 conjugated as in Formula XI, and with a DAR of 8 (conjugate)
heavy: EVQLVESGGGLVKPGGSLRLSCAASGFNLNHYNMNWVRQAPGKGLEWVSSVSSGGGFRYYADSVRGRFTISRDNAKNSLYLQMNSLRAEDTAVYYCARGAVFHDAFDIWGQGTLVTVSSASTKGPSVFPLAPSSKSTSGGTAALGCLVKDYFPEPVTVSWNSGALTSGVHTFPAVLQSSGLYSLSSVVTVPSSSLGTQTYICNVNHKPSNTKVDKRVEPKSCDKTHTCPPCPAPEAAGGPSVFLFPPKPKDTLMISRTPEVTCVVVSVSHEDPEVKFNWYVDGVEVHNAKTKPREEQYNSTYRVVSVLTVLHQDWLNGKEYKCKVSNKALPAPIEKTISKAKGQPREPQVYTLPPSREEMTKNQVSLTCLVKGFYPSDIAVEWESNGQPENNYKTTPPVLDSDGSFFLYSKLTVDKSRWQQGNVFSCSVMHEALHNHYTQKSLSLSPGK
light: DIQLTQSPSFLSASVGDRVTITCRASQDISSYLAWYQQKPGKAPKLLIYVASTLQSGVPSRFSGSGSGTEFTLTISSLQPEDFATYYCQQINSYPFTFGQGTKVEIKRTVAAPSVFIFPPSDEQLKSGTASVVCLLNNFYPREAKVQWKVDNALQSGNSQESVTEQDSKDSTYSLSSTLTLSKADYEKHKVYACEVTHQGLSSPVTKSFNRGEC
[1]
  Mean tumor volume: 993.45 mm^3
MDA-MB-468 xenograft
  Mean tumor volume: 366.45 mm^3

B3: Ab4 ADC: Ab4 conjugated as in Formula XI, and with a DAR of 8 (conjugate)
heavy: QVQLQESGPGLVKPSETLSLTCTVSGGSISGYYWSWIRQPPGKGLEWIGYIYYSGSTNYNPSLKSRVTISVDTSKNQFSLKLSSVTAADTAVYYCARLGIFFDAFDIWGQGTLVTVSSASTKGPSVFPLAPSSKSTSGGTAALGCLVKDYFPEPVTVSWNSGALTSGVHTFPAVLQSSGLYSLSSVVTVPSSSLGTQTYICNVNHKPSNTKVDKRVEPKSCDKTHTCPPCPAPEAAGGPSVFLFPPKPKDTLMISRTPEVTCVVVSVSHEDPEVKFNWYVDGVEVHNAKTKPREEQYNSTYRVVSVLTVLHQDWLNGKEYKCKVSNKALPAPIEKTISKAKGQPREPQVYTLPPSREEMTKNQVSLTCLVKGFYPSDIAVEWESNGQPENNYKTTPPVLDSDGSFFLYSKLTVDKSRWQQGNVFSCSVMHEALHNHYTQKSLSLSPGK
light: DIQLTQSPSFLSASVGDRVTITCRASQGISSYLAWYQQKPGKAPKLLIYAASTLQSGVPSRFSGSGSGTEFTLTISSLQPEDFATYYCQQFNSYPWTFGQGTKVEIKRTVAAPSVFIFPPSDEQLKSGTASVVCLLNNFYPREAKVQWKVDNALQSGNSQESVTEQDSKDSTYSLSSTLTLSKADYEKHKVYACEVTHQGLSSPVTKSFNRGEC
[1]
  Mean tumor volume: 928.09 mm^3
MDA-MB-468 xenograft
  Mean tumor volume: 343.65 mm^3

B4: Ab5 ADC: Ab5 conjugated as in Formula XI, and with a DAR of 8 (conjugate)
heavy: QVQLVQSGAEVKKPGASVKVSCKASGYTFTSYYVHWVRQAPGQGLEWMGIINPSIISTSYAQKFQARVTMTRDTSTSTVYMELSSLRSEDTAVYYCARGLNFDAFDIWGQGTLVTVSSASTKGPSVFPLAPSSKSTSGGTAALGCLVKDYFPEPVTVSWNSGALTSGVHTFPAVLQSSGLYSLSSVVTVPSSSLGTQTYICNVNHKPSNTKVDKRVEPKSCDKTHTCPPCPAPEAAGGPSVFLFPPKPKDTLMISRTPEVTCVVVSVSHEDPEVKFNWYVDGVEVHNAKTKPREEQYNSTYRVVSVLTVLHQDWLNGKEYKCKVSNKALPAPIEKTISKAKGQPREPQVYTLPPSREEMTKNQVSLTCLVKGFYPSDIAVEWESNGQPENNYKTTPPVLDSDGSFFLYSKLTVDKSRWQQGNVFSCSVMHEALHNHYTQKSLSLSPGK
light: DIQLTQSPSFLSASVGDRVTITCRASQGISSYLAWYQQKPGKAPKLLIYAASTLQSGVPSRFSGSGSGTEFTLTISSLQPEDFATYYCQQLNNYPFTFGQGTKVEIKRTVAAPSVFIFPPSDEQLKSGTASVVCLLNNFYPREAKVQWKVDNALQSGNSQESVTEQDSKDSTYSLSSTLTLSKADYEKHKVYACEVTHQGLSSPVTKSFNRGEC
[1]
  Mean tumor volume: 632.99 mm^3
MDA-MB-468 xenograft
  Mean tumor volume: 220.38 mm^3

B5: Ab6 ADC: Ab6 conjugated as in Formula XI, and with a DAR of 8 (conjugate)
heavy: QVQLVQSGAEVKKPGASVKVSCKASGYTFTGYYMHWVRQAPGQGLEWMGIINPSGGSTTYAQKFQGRVTMTRDTSTSTVYMELSSLRSEDTAVYYCARGRLGTYFDYWGQGTLVTVSSASTKGPSVFPLAPSSKSTSGGTAALGCLVKDYFPEPVTVSWNSGALTSGVHTFPAVLQSSGLYSLSSVVTVPSSSLGTQTYICNVNHKPSNTKVDKRVEPKSCDKTHTCPPCPAPEAAGGPSVFLFPPKPKDTLMISRTPEVTCVVVSVSHEDPEVKFNWYVDGVEVHNAKTKPREEQYNSTYRVVSVLTVLHQDWLNGKEYKCKVSNKALPAPIEKTISKAKGQPREPQVYTLPPSREEMTKNQVSLTCLVKGFYPSDIAVEWESNGQPENNYKTTPPVLDSDGSFFLYSKLTVDKSRWQQGNVFSCSVMHEALHNHYTQKSLSLSPGK
light: SYVLTQPPSVSVAPGQTARITCGGNNIGSKSVHWYQQKPGQAPVLVVYDDSDRPSGIPERFSGSNSGNTATLTISRVEAGDEADYYCQVWDRSSDQVVFGGGTKLTVLGQPKAAPSVTLFPPSSEELQANKATLVCLISDFYPGAVTVAWKADSSPVKAGVETTTPSKQSNNKYAASSYLSLTPEQWKSHRSYSCQVTHEGSTVEKTVAPTECS
[1]
  Mean tumor volume: 866.94 mm^3
MDA-MB-468 xenograft
  Mean tumor volume: 304.9 mm^3

Reference: US20250000991A1, “NECTIN-4 ANTIBODIES AND ANTIBODY-DRUG CONJUGATES” (Eli Lilly and Company, priority 2023, published 2025)
